Results reported in patent US20100081624A1, “SELECTIVE PEPTIDES THAT INHIBIT THE BIOLOGICAL ACTIVITY OF CALCINEURIN” (Consejo Superior de Investigaciones Cientficas, priority 2005, published 2010).

Molecular target: Calcineurin (CN) of HeLa cells, endogenous
Assay: cell-based or functional assay

percentage of cells with cytosolic NFATc2 staining after calcium ionophore | Substance
77% | GFP-LxVPc1 fusion protein
92% | GFP-VIVIT fusion protein
